Data: paper PMC4652220, “Imaging and energetics of single SSB-ssDNA molecules reveal intramolecular condensation and insight into RecOR function” (eLife, 2015)

Target: T1, RecO (UniProt P0A7H3 1-242)
T1 construct: RecO recombination mediator protein; source: purified as previously described (Kantake et al., 2002)
T1 sequence (looked up): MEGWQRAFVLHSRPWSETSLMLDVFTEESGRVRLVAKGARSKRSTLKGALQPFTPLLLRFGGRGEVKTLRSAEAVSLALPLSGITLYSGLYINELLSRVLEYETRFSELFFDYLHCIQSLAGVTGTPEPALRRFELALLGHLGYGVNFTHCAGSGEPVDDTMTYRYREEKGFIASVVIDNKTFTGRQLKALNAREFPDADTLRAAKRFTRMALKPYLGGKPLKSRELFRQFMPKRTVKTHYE
Assay: magnetic tweezers force spectroscopy; single tethered ssDNA; added in turn: 100 mM NaOAc and 1 mM Mg(OAc)2, 200 nM SSB, 100 nM RecO, 1 μM RecR; 20 mM TrisOAc pH 8.0, 50 mM DTT; 25°C
Conditions: both partners purified

binding result: binds
B1: RecR (natural protein, UniProt P0A7H6 1-201, looked up)
chain: MQTSPLLTQLMEALRCLPGVGPKSAQRMAFTLLQRDRSGGMRLAQALTRAMSEIGHCADCRTFTEQEVCNICSNPRRQENGQICVVESPADIYAIEQTGQFSGRYFVLMGHLSPLDGIGPDDIGLDRLEQRLAEEKITEVILATNPTVEGEATANYIAELCAQYDVEASRIAHGVPVGGELEMVDGTTLSHSLAGRHKIRF
notes: RecR recombination protein; It cites other work for RecR dimers/tetramers; source: purified as previously described (Kantake et al., 2002)
